The record followed here is the RNAGym collection of RNA variant scans (doi:10.7554/elife.90254).

Sequences and labels used below:
B1: LINE1-full (parent)
chain: UACGUAGGUGGUUUUCCCCUGAUAGUGCUAAGGGGGCCUGGAAGUUUGGACUGGGCAGAGCUCAACACAGCGUGGCAAAGUGGCUGUGGCUAGACUGCCUCUCUGGAUUCCUCGUCACUCAGCAGGGCAUCUCUGAGAGAAAUGCC

The variants in this series derive from B1. The series can be described thus: self-cleavage, relative activity (ratio to wild type); higher = more cleavage; in vitro, sequencing; the parent is a self-cleaving ribozyme.
For the variant UACGCAGGUGGUUUUCCCCUGAUAGUGCUAAGGGGGCCUGGAAGUUUGGACUGGGCAGAGCUCAACACAGCGUGGCAAAGUGGCUGUGGCUAGACUGCCUCUCUGGAUUCCUCGUCACUCAGCAGGGUAUCUCUGAGAGAAAUGCC, the self-cleavage was determined as 1.53.
As for UACGCAGGUGGUUUUCCCCUGAUAGUGCUAAGGGGGCCUGGAAGUUUGGACUGGGCAGAGCUCAACACAGCGUGGCAAAGUGGCUGUGGCUAGACUGCCUCUCUGGAUUCCUCGUCACUCAGCAGGGCUUCUCUGAGAGAAAUGCC, the figure is 1.05; as for UACGCAGGUGGUUUUCCCCUGAUAGUGCUAAGGGGGCCUGGAAGUUUGGACUGGGCAGAGCUCAACACAGCGUGGCAAAGUGGCUGUGGCUAGACUGCCUCUCUGGAUUCCUCGUCACUCAGCAGGGCCUCUCUGAGAGAAAUGCC, 1.69.
With UACGCAGAUGGUUUUCCCCUGAUAGUGCUAAGGGGGCCUGGAAGUUUGGACUGGGCAGAGCUCAACACAGCGUGGCAAAGUGGCUGUGGCUAGACUGCCUCUCUGGAUUCCUCGUCACUCAGCAGGGCAUCUCUGAGAGAAAUGCC the figure was 0.24; with UACGCAGGUGGUUUUCCCCUGAUAGUGCUAAGGGGGCCUGGAAGUUUGGACUGGGCAGAGCUCAACACAGCGUGGCAAAGUGGCUGUGGCUAGACUGCCUCUCUGGAUUCCUCGUCACUUAGCAGGGCAUCUCUGAGAGAAAUGCC, 1.26; with UACGCAGGUGGUUUUCCCCUGAUAGUGCUAAGGGGGCCUGGAAGUUUGGACUGGGCAGAGCUCAUCACAGCGUGGCAAAGUGGCUGUGGCUAGACUGCCUCUCUGGAUUCCUCGUCACUCAGCAGGGCAUCUCUGAGAGAAAUGCC, 0.26.
As for UACGCAGGUGGUUUUCCCCUGAUAGUGCUAAGGGGGCCUGGAAGUUUGGACUGGGCAGAGCUCAGCACAGCGUGGCAAAGUGGCUGUGGCUAGACUGCCUCUCUGGAUUCCUCGUCACUCAGCAGGGCAUCUCUGAGAGAAAUGCC, the self-cleavage stood at 0.15.
With UACGCAGGUGGUUUUCCCCUGAUAGUGCUAAGGGGGCCUGGAAGUUUGGACUGGGCAGAGCUCAACACAGCGUGGCAAAGUGGCUGUGGCUAGACUGCCUCUCUGGAUUCCUCGUCACUCAGCAGGGCAUCUCUGAGAGAGAUGCC the figure was 0.92; with UACGCAGGUGGUUUUCCCCUGAUAGUGCUAAGGGUGCCUGGAAGUUUGGACUGGGCAGAGCUCAACACAGCGUGGCAAAGUGGCUGUGGCUAGACUGCCUCUCUGGAUUCCUCGUCACUCAGCAGGGCAUCUCUGAGAGAAAUGCC, 1.19; with UACGCAGGUGGUUUUCCCCUGAUAGUGCUAAGGGGGUCUGGAAGUUUGGACUGGGCAGAGCUCAACACAGCGUGGCAAAGUGGCUGUGGCUAGACUGCCUCUCUGGAUUCCUCGUCACUCAGCAGGGCAUCUCUGAGAGAAAUGCC, 1.02.
As for UACGCAGGUGGUUUUCCCCUGAUAGUGCUAAGGGGGCCUGGAAGUUUGGACUGGGCGGAGCUCAACACAGCGUGGCAAAGUGGCUGUGGCUAGACUGCCUCUCUGGAUUCCUCGUCACUCAGCAGGGCAUCUCUGAGAGAAAUGCC, the figure is 0.93; as for UACGCAGGUGGUUUUCCCCUGAUAGUGCUAAGGGGGCCUGGAAGUUUGGACUGGGCUGAGCUCAACACAGCGUGGCAAAGUGGCUGUGGCUAGACUGCCUCUCUGGAUUCCUCGUCACUCAGCAGGGCAUCUCUGAGAGAAAUGCC, 0.29; as for UACGCAGGUGGUUUUCCCCUGAUAGUGCUAAGGGGGCCUGGAAGUUUGGACUGGGCAGAGCUCAACACAGCGUGGCAAAGUGGCUGUGGCUAGACUGCCUCUCUGGAUUCCUCGUCACUCAGCAGGGCAUCUCUGAGGGAAAUGCC, 1.18.
As for UACGCAGGUGGUUUUCCCCUGAUAGUGCUAAGGGGGCCUGGAAGUUUGGACUGGGCAGAGCUCAACACAGCGUGGCAAAGUGGCUGUGGCUAGACUGCCUCUCUGGAUUCCUCGUCACUCAGCAGGGCAUCUCUGAGUGAAAUGCC, the figure is 1.58.
For UACGCAGGUGGUUUUCCACUGAUAGUGCUAAGGGGGCCUGGAAGUUUGGACUGGGCAGAGCUCAACACAGCGUGGCAAAGUGGCUGUGGCUAGACUGCCUCUCUGGAUUCCUCGUCACUCAGCAGGGCAUCUCUGAGAGAAAUGCC, the self-cleavage came out at 0.67.
With UACGCAGGUGGUUUUCCCCUGAUAGUGCUAAGGGGGCCUGGAAGUUUGGACUGGGCAGAGCUCAACACAGCGUGGCAAAGUGGUUGUGGCUAGACUGCCUCUCUGGAUUCCUCGUCACUCAGCAGGGCAUCUCUGAGAGAAAUGCC the figure was 0.18; with UACGCAGGUGGUUUUCCCCUGAUAGUGCUAAGGGGGCCUGGAAGUUUGGACUGGGCAGAGCUCAAUACAGCGUGGCAAAGUGGCUGUGGCUAGACUGCCUCUCUGGAUUCCUCGUCACUCAGCAGGGCAUCUCUGAGAGAAAUGCC, 0.13.
As for UACGCAGGUGGUUUUCCCCUGAUAGUGCUAAGGGGGCCUGGAAGUUUGGACUGGGCAGAGCUCAACACAGCGUGGCAAAGUGGCUGUGGCUAGACUGCCUCUCUGGAUUCCUCGUCACUCAGCAGGGCAUCUCUGAGAGUAAUGCC, the figure is 0.86.
Turning to UACGCAGGUGGUUUUCCCCUGAUAGUGCUAAGGGGGCCUGGAAGUUUGGACUGGGCAGAGCUCAACACAGCGUGGCAAAGUGGCUGUGGCUAGACUGCCUCUCUGGAUUACUCGUCACUCAGCAGGGCAUCUCUGAGAGAAAUGCC, the self-cleavage amounted to 1.19.
Regarding UACGCAGGUGGUUUUCCCCUGAUAGUGCUAAGGGGGCCUGGAAGUUUGGACUGGGCAGAGCUCAACACAGCGUGGUAAAGUGGCUGUGGCUAGACUGCCUCUCUGGAUUCCUCGUCACUCAGCAGGGCAUCUCUGAGAGAAAUGCC, the self-cleavage came to 1.88.
With UACGCAGGUGGUUUUCCCCUGAUAGUGCUAAGGUGGCCUGGAAGUUUGGACUGGGCAGAGCUCAACACAGCGUGGCAAAGUGGCUGUGGCUAGACUGCCUCUCUGGAUUCCUCGUCACUCAGCAGGGCAUCUCUGAGAGAAAUGCC the figure was 0.82; with UACGCAGGUGGUUUUCCCCUGAUAGUGCUAAGGGGGCCUGGAAGUUUGGACUGGGCAGAGCUCAACGCAGCGUGGCAAAGUGGCUGUGGCUAGACUGCCUCUCUGGAUUCCUCGUCACUCAGCAGGGCAUCUCUGAGAGAAAUGCC, 0.67; with UACGCAGGUGGUUUUCCCCUGAUAGUGCUAAGGGGGCCUGGAAGUUUGGACUGGGCAGAGCUCAACACAGCGUGGCAAAGUGGCUGUGGCUAGACUGCCUCUCUGGAUUCCUCGUCGCUCAGCAGGGCAUCUCUGAGAGAAAUGCC, 0.81.
With UACGCAGGUGGUUUUCCCCUGAUAGUGCUAAGGGGGCCUGGAAGUUUGGACUGGGCAGAGCUCAACACAGCGUGGCAAAGUGGCUGUGGCUAGACUGCCUCUCUGGAUUCCUCGUCUCUCAGCAGGGCAUCUCUGAGAGAAAUGCC the figure was 1.03.
With UACGCAGGUGGUUUUCCCCUGAUAGUGCUAAGGGGGCCUGGAAGUUUGGACUGGGCAGAGCUCAACACAGCGUGGCAAAGUGGCUGUGGCUGGACUGCCUCUCUGGAUUCCUCGUCACUCAGCAGGGCAUCUCUGAGAGAAAUGCC the figure was 0; with UACGCAGGUGGUUUUCCCCUGAUAGUGCUAAGGGGGCCUGGAAGUUUGGACUGGGCAGAGCUCAACACAGCGUGGCAAAGUGGCUGUGGCUAGUCUGCCUCUCUGGAUUCCUCGUCACUCAGCAGGGCAUCUCUGAGAGAAAUGCC, 0.76; with UACGCAGGUGGUUUUCCCCUGAUAGUGCUAAGGGGGCCUGGAAGUUUGGACUGGGCAGAGCUCAACACAGCGUGGCAAAGUGGCUGUGGCUAGCCUGCCUCUCUGGAUUCCUCGUCACUCAGCAGGGCAUCUCUGAGAGAAAUGCC, 0.
In the case of UACGCAGGUGGUUUUCCCCUGAUAGUGCUAAGGGGGCCUGGAGGUUUGGACUGGGCAGAGCUCAACACAGCGUGGCAAAGUGGCUGUGGCUAGACUGCCUCUCUGGAUUCCUCGUCACUCAGCAGGGCAUCUCUGAGAGAAAUGCC, the self-cleavage came to 1.03.
As for UACGCAGGUGGUUUUCCCCUGAUAGUGCUAAGGGGGCCUGGAUGUUUGGACUGGGCAGAGCUCAACACAGCGUGGCAAAGUGGCUGUGGCUAGACUGCCUCUCUGGAUUCCUCGUCACUCAGCAGGGCAUCUCUGAGAGAAAUGCC, the figure is 1.48; as for UACGCAGGUGGUUUUCCCCUGAUAGUGCUAAGGGGGCCUGGAAGUUUGGACUGGGCAGAGCUCAACACAGCGUGGCAAAGUGGCUGUGGCUAGACUGCCUCUCUGGAUUCUUCGUCACUCAGCAGGGCAUCUCUGAGAGAAAUGCC, 0.85; as for UACGCAGGUGGUUUUCCCCUGAUAGUGCUAAGGGGGCCUGGAAGUUUGGACUGGGCAGAGCUCUACACAGCGUGGCAAAGUGGCUGUGGCUAGACUGCCUCUCUGGAUUCCUCGUCACUCAGCAGGGCAUCUCUGAGAGAAAUGCC, 0.49.
With UACGCAGGUGGUUUUCCCCUGAUAGUGCUAAGGGGGCCUGGAAGUUUGGACUGGGCAGAGCUCAACACGGCGUGGCAAAGUGGCUGUGGCUAGACUGCCUCUCUGGAUUCCUCGUCACUCAGCAGGGCAUCUCUGAGAGAAAUGCC the figure was 0.78; with UACGCAGGUGGUUUUCCCCUGAUAGUGCUAAGGGGGCCUGGAAGUUUGGACUGGGCAGAGCUCAACACAGCGUGGCAAAGUGGCUGUGGCUAGACUGCCUCUCUGGAUUCCUCGUCACUCAGCAGGGCAUCUCUGAGAGAAGUGCC, 1.15; with UACGCAGGUGGUUUUCCCCUGAUAGUGCUAAGGGGGCCUGGAAGUUUGGACUGGGCAGAGCUCAACACAGCGUGGCAAAGUGGCUGUGGCUAGACUGCCUCUCUGGAUUCCUCGUCACUCAGCAGGGCAUCUCUGGGAGAAAUGCC, 1.62.
UACGCUGGUGGUUUUCCCCUGAUAGUGCUAAGGGGGCCUGGAAGUUUGGACUGGGCAGAGCUCAACACAGCGUGGCAAAGUGGCUGUGGCUAGACUGCCUCUCUGGAUUCCUCGUCACUCAGCAGGGCAUCUCUGAGAGAAAUGCC: the self-cleavage turned out to be 1.09.
As for UACGCAGGUGGUUUUCCCCUGAUAGUGCUAAGGGGGCCUGGAAGUUUGGUCUGGGCAGAGCUCAACACAGCGUGGCAAAGUGGCUGUGGCUAGACUGCCUCUCUGGAUUCCUCGUCACUCAGCAGGGCAUCUCUGAGAGAAAUGCC, the figure is 0.64.
As for UACGCAGGUGGUUUUCCCCUGAUAGUGCUAAGGGGGCAUGGAAGUUUGGACUGGGCAGAGCUCAACACAGCGUGGCAAAGUGGCUGUGGCUAGACUGCCUCUCUGGAUUCCUCGUCACUCAGCAGGGCAUCUCUGAGAGAAAUGCC, the figure is 1.79; as for UACGCAGGUGGUUUUCCCCUGAUAGUGCUAAGGGGCCCUGGAAGUUUGGACUGGGCAGAGCUCAACACAGCGUGGCAAAGUGGCUGUGGCUAGACUGCCUCUCUGGAUUCCUCGUCACUCAGCAGGGCAUCUCUGAGAGAAAUGCC, 1.25; as for UACGCAGGUGGUUUUCCCCUGAUAGUGCUAAGGGGGCCUGGAAGUUUGGACUGGGCAGAGCUCAACACAGCGUGGCAGAGUGGCUGUGGCUAGACUGCCUCUCUGGAUUCCUCGUCACUCAGCAGGGCAUCUCUGAGAGAAAUGCC, 1.18.
